In a protein production outcome set (Wang et al. 2014):

Test: label from the status in PepcDB records

Row | Sequence | protein production
1 | AKESEQKVTIDSAKHEKHTKDKEENNSANTVFFDKINDLLVASVKEFEGTVGISYLDLETGEQRSVNGQHEFYTASTIKVPLTMLVADTVASGQKKWTDLIPYNAEEDYEEGTGIIAYNIQPEYPLKTLQEYAITYSDNIAKNMLYDTLGGDAKAKREMYQRYLHKTPSIEEPQFSSEDALVILQKLYTEKATKPDYQAIYDSMKQSVFHERMETPTTQGKVAHKIGSYDEFIHDMGILETPHPFALAIFTKGPDNAKSAAFIASVTDKLWQLQVSEYPNQ | not failed
2 | MFLTAVNPQPLSTPSWQIETKYSTKVLTGNWMEERRKFTRDTDKTPQSIYRKEYIPFPDHRPDQISRWYGKRKVEGLPYKHLITHHQEPPHRYLISTYDDHYNRHGYNPGLPPLRTWNGQKLLWLPEKSDFPLLAPPTNYGLYEQLKQRQLTPKAGLKQSTYTSSYPRPPLCAMSWREHAVPVPPHRLHPLPHF | failed
3 | MKLLIKKITYIIFILCSYCSYGEAKIQLPSILGNGMVLQQKSEVRLWGKATPNKKVTIYTSWNAQQQEVNSNKKGDWIVTVTTPEAGGPYTIRISDGEELLLDDVLIGEVWLCSGQSNMEMPVKGFRGQPAAESQNTIVNVNPNRSLRLFTVQRAYSSILEEDVTGQWEKNTPKSVSTFSAVAYYYGDQLQKVLGIPVGLIHASWSGSSIEPWISKENLLQFPEVDLTPAENPQLKYANGTPTVLYNAMIKPLENYNIKGMIWYQGESNSARPEQYQRLFAVWAKQNRALFRSKDLPIYYTEIAPVASPVDRPFQRAIFREAQLESMHEVSNTGMAFTNDLGSEKFIHAPKKREIGQRLAYWALAKTYQLEGFEYSGPIHRSYMKNGKIIEILFDHADDGLNPENEPLVGFEIASEDSIFYPANAEIINGTSRVKVWSDKVAQPVYVRYAFRNFLRGNLVNNAGLPAAPFRMDLRKMDFQNPEKLGWARVTTFGKLPEYISVYHSPEWIESTRTNAYIAVVDTKKGGSLDVGGADSGVKTPIEFYQSEKRKPSIVLNGGYFANGRTVSLICKNGKILSDNISVVNRLLEGKKTAYYPTRSVFSLYTDGTYHVDWIYKSAQQTYAYDMPALNSSTRPPLSVPSKGFPKGAKVWTAEMGIGAGPILIKDGTIRNSWVEELLDVASGINPQTCQPRSAVGVTQDGKLILFVCEGREQTPDIPGMTLAQLARLMRSFGCVDALNLDGGGSSCMLINGKETIKPCNKYHHQRPVATVLFAR | failed
4 | MREPMTWRTSPGQTADASRHPAIPSRSPLASRALSFLGALSLLTFAATPVLAESTPTAAPPQFAVESPKAASSLLLSVAHAGKRLVAVGDRGHILLSDDDGKTWTQAKVPTRQLLTSVFFVNERKGWAVGHDAQILVSDDAGSTWARQFEDLGREAPLLDIWFADEQHGLAVGAYGALLETRDGGQHWEDVSERLDNEDQFHLNAIAAVKDNGLLVVGEAGSLFRSKDWGATWEKLEGPYEGSLFGAIGTADAGGVLVYGLRGHLFRSADFGDSWEEIPLKAASGDLEFGLSDGALLADGRIVVVGHGGSVLESTDGGRSFSVFNRPDRLSLAGVSATGDGHLILVGQGGVHLAAANGAALEQQQ | failed
5 | MLKQRIITALLLVPVALYGVFMLPLWGFALFIQGVLMLGAWEWSPLMGVRRISARIAYTLFVGAIIGVLSWLAPYEHLWEGGELSKLIYYTILAGGVWWVVALAMIVNYPSSRRMWSRTRAIVGVFGLLIFIPTWAALVTVRSIDIDESRFFGGWVVLFILLLVWAADVGAYFAGVRYGRNKMMPAVSPGKTMEGLCGGVTLAFVVMMVVAHWTKVPADQFTGYYLTGLFTVVASVFGDLNESMFKRSAGVKDSGSILPGHGGILDRIDSLTAAVPIFTLAYLEFLH | failed
6 | MKISVIISNYNYARYLSRAINSVLAQTHSDIEIVIVDDGSTDNSRDVITQLQEQAPDKIKPIFQANQGQGGAFNAGFAAATGEVVAFLDADDVWKPHKLQRIVEVFQTSDVVGVMHHLDIIDGNDKTIDQASTQGPKLSEDLASVILQTGNAWCFPPTSGLAYRREVLEKVFPIDPVKWRIWADGCIIYCTAFLGKIKTLQENLAYYRIHGANNHMSAASATSEQEAKSQAGIEMTNQYINDFLVRIGYGARVDLSRNLQYRRTKYYQRSQWDLREVWGISRLILGWPFYSGQERAYYLARFLFKSGKFLLRSDVHTESTTI | failed
7 | MAPACTTVHRRRAPLAAVLMLSLLPVLSPHADAAQVPWHSRTFKYVADNKDLKEVLRDLSASQSIATWISPEVTGTLSGKFETSPQKFLDDLAATYGFVWYYDGAVLRIWGANESKSATLSLGTASTKSLRDALARMRLDDPRFPVRYDETAHVAVVSGPPGYVDTVSAIAKQVEQGARQRDATEVQVFQLHYAQAADHTTRIGGQDVQIPGMASLLRSMYGARGAPVAAIPGPGANFGRVQPIGGGSSNTFGNAAQGQGGGASGILGLPSSWFGGASSSDRVPVSPPLPGSGTAATAGSPASVWPELSKGRRDESTPIDAGGGAELASDAPVIEADPRTNTILIRDRPERMQSYGTLIQQLDNRPKLLQIDATIIEIRDGAMQDLGVDWRFHSQHTDIQTGNGSGGQLGFNGALSGAATDGATTPAGGTLTAVLGDAGRYLMTRVSALETTNKAKIVSSPQVATLDNVEAVMDHKQQAFVRVSGYASADLYNLSAGVSLRVLPSVVPGSPNGQMRLDVRIEDGQLGSNTVDGIPVITSSEITTQAFVNEGQSLLIAGYAYDADETDLNAVPGLSKIPLLGNLFKHRQKSGSRMQRLFLLTPHVVSP | failed
8 | MYGRKGYQLIKDFATGEKGQLKPFNSKLFDETIEECDQNHHLIQSLIRKMQQEGLDVQNNRNADHYGALIHHLALIRNKRCLMAYVYNRAEIVRDLAWRVGLELLDLPSEIQEKLTTLEKEYFKNHSVALKSYMGKVGIELNVDMVPPKDPYIKVRILDDIDEGIVLSDKTTNFARHSMHFLKRTDAEPYIARGQMEELTG | failed
9 | MMIQGHLFHQDRKRTFRIVEPFGSTTDALIYFHGSQQSGSVGRSFTNRTFDPLPFMVVYPDGVDQHWNDARLGLDENTRHLGIDDVGFFVKLATHLGNTYGIKRIFIVGYSNGGQMVLRLMHEVPKMLSGAATIASNMPVAENTLPQVKTFKTHPVPYLAMAGTADTFSPYEGGDAGIGREHRRGVGMSAFDSAAYIAARNGLTEHRHDVIDDVVSIDTWDGENPVEFWTLNGIGHLVPSGKTYPEFLGPSTTSVIAAEEIGKFFDGVRRR | failed
10 | MLDTVRQELNNFRSPLYRNSIYISLTSLVTAVAGFLFWSVAARLYPSSQVGVASALVSAINLTFTVSMLGLNFALIRFYPQYKERAVGSSLVLAVTASFFVSLVYGLIMGGSESFRGVFSAEFLAIFVTFSMVGTAYNILSTYAIAKRKAEHSFMQGLLFALRFVFLFFLVPLGVFGIVGSFGFGLTLGLIYGLIFIDDIKLSLDVEYLKESFRFSLGNYIASMANVAPNYLMPTLVLTMLGKEEAAYFYIAFAIGNLILFIPNAINTSFFVEGSHGLKDMKRTLKKALAFSYLYLAVATVFVWLFGGYVLELFRPEYVKGFGLLKLMVLGGFFVVPVNFSITILNIQKRVREVVGINLLKAALFLGLSYLLIPRFGIEGVGWGWIGAYSISVFMLFVRFFRKVF | failed
11 | MKKFVTLLLCMLPVSLFAQVNDGIRQAMDNYDYETVVTLIEPDCQDSLLLITKAQALKAMNRYPEAIGVLNSLILKDSTNTKVLIDLAECYKLTGNSRRAANCYQKAMNLQPENKFFRLQFIRSLLASEDYEEARTACHGWLERDSLSATGYKYLGQAYEGLQDAASAFLSYNIAYRRDSLDAQTVARIAGIFNNNQQFKDAVDVTEVYRLSDTTNIDVNRQNAKAYCMLKEYGTAVKRYESLKELGDRSFLTLYYLGVSHYGDNWFYGAYDNLKEAYQKNPMDVNVLYYLAKASARTSWKKEGVEYMEEAFRIAVPSDSMMVRLYDGLVECYDYAGDTKKEVEALEKLYIYTKKNSILYKIACLYDWKEDEKNAIRYYRKYMATVSEDQRYALDEDGNPVEDRITLYQQAWKRIKKIKEEGFFRGDIPTKSFPVEKKDTLALRHAK | failed
12 | MAMMAKHQAVKKIFDQIATKYDLIDTIISLGLDQHWRRVLVSSLGLREGMRCLDCGAGSGKVTELIYFRCGGCDVTALDITDSMFNPELKKYVKFVVSPAESLPFPDASFDRVSSAFLTRNLADIDRYFAEVYRVLRPGGVFVNMDIYNPTRPVISEFFSLYFYRFVPFFGNRATGSKNYTYLANTVKYFHRPSVISQKLADRGFSVEATDLFFGAVYLHRSVKPEGRGLEHHHHHH | failed
13 | MAKKNKRSQQKNKCLKPEKDPSTVKRLLEDPPRKKRYLQPLENPPTESYGDDEKMETEEEGEKYLGKNLPASAFIIVAAERHDSDSYSETELEKKICGSVVVAKMNDDKMVSTDTKKKYFQRILSDDDKIVLLQGMVDFQNDKGTISYDDMTGFIDTVKNIISFQANSRQFTTKIRRLKDKFVQKRNKGVDENSLANVEIYEI | failed
14 | MRFWGKFFGFVIGFMFGRFFGALLGLWLGHLYDKRPGGGASFSQILGQAKNRQGIFFNTTFAVMGHVAKASGRVTETDIRIATLLMDQMRLTGDARKEAQQAFREGKEPDFDLCSSLQAFRAVTQGRQELVQMFIEIQIQTALSDGELDAAEHAILMTVAQELGYGRQQLDELLKRWQAEFRFHQTSSGNKTSITDAYHLLGITAEATDQEVKRAYRKLMNEHHPDKLVAKGLPPEMMEIANRKAQDIQAAYDRVKSERGMR | failed
15 | LFTESAKAVLAIAQEEAKYFRHQSVGSEHLLLALVLEPNGIAGKTLRQLNTDTEDIREEIEHLSGYGTMQSPMGNNNLYLPYSPRAKQIFAYAGDEAKRLGAQKIGTEHLLLGLLRDEEILASRILVNLGLSLSKMRQLLLKKMG | failed
16 | MFLKKGKKKLYKSGKNWVAALLLSAAVLSFYSAGLNQQTASAATSSQTKAVSYDKITNKQTVNYSAYVNENNRNDGLYSAPALTDVASMTSTGSAKSLNGHLVMVSEIDTTKRASTGVSYQYAKITDNNKSYWVDLRALNDSAQITSTQTVNFQAYINGDTRNDGLYSAPALTTSSSLTPLAYSKSLNKKSVMVSEINTTKRASTGLSYQYAKITYNGKTYWVDARAVFDSITSKQTNLNYYATISETNRNDGIYEEPALTSLASMASTGSVKTFDQDSVEVLEIDTTFRNSNDQKYQYAKVTNGTNTYWVDVRALNTSGFAKITSSKTEDYSAYINEANRKDSIYDNGPALTSPTTLTASALAKTVNGDQVEVIALDTTTRSNGSQYTYLEVKDGSNTYWIDSRAVTAYNFDSITNQQTVNETATINEGGRSDGLYNAPALTSPSSLTSTGSAKDLDGQTVTILEIDTTKRASNGNTYQYAKIAYNGKTYWVDARALNNSTYSGAIMVNFEDENGNQLASPIEYTGKIGSTYQPEPKAITGYSVDLAKTGSIDLTYSSTTQTITYIYEKSTATTTDLINGQGQGIDNDSWTVGSDVQPGWYKITPIGLGTDDNIVLNVEGSDSSDLPLANDISGAWFGSDSSAGEISSYQAYLTAGQVIEMQDNGTDAAAGQGLHLETLSTRPATSLIDPESPIPSSFQDLGAGIYEVGVDIRPGNYQVADILGEGYLYTDDGTVSLDLGTGHGDTSTGTITLTTGELLTSTINGISLEPEN | failed
17 | MAAIPALDPEAEPSMDVILVGSSELSSSVSPGTGRDLIAYEVKANQRNIEDICICCGSLQVHTQHPLFEGGICAPCKDKFLDALFLYDDDGYQSYCSICCSGETLLICGNPDCTRCYCFECVDSLVGPGTSGKVHAMSNWVCYLCLPSSRSGLLQRRRKWRSQLKAFYDRESENPLEMFETVPVWRRQPVRVLSLFEDIKKELTSLGFLESGSDPGQLKHVVDVTDTVRKDVEEWGPFDLVYGATPPLGHTCDRPPSWYLFQFHRLLQYARPKPGSPRPFFWMFVDNLVLNKEDLDVASRFLEMEPVTIPDVHGGSLQNAVRVWSNIPAIRSSRHWALVSEEELSLLAQNKQSSKLAAKWPTKLVKNCFLPLREYFKYFSTELTSSL | failed
18 | DAAPAPAAEAAPAAAPAPAAAAELKEVHVPDIGGDEVEVTEIMVAIGDSIEEEQSLITVEGDKASMEVPAPFAGTLKEIKVAAGDKVSTGSLIMVFETAGSGAPAAPAAVEAPAAAAPAASAA | failed
